Assay results from patent publication US20140274782A1, “AFFINITY REAGENTS AND METHODS FOR DETECTION, PURIFICATION, AND PROTEOMIC ANALYSIS OF METHYLATED PROTEINS” (The Board of Trustees of the Leland Stanford Junior …, priority 2013, published 2014).

T1: G9a and GLP (Homo sapiens, UniProt Q96KQ7+Q9H9B1)
T1 sequence (Q96KQ7 2-1210 limits assumed): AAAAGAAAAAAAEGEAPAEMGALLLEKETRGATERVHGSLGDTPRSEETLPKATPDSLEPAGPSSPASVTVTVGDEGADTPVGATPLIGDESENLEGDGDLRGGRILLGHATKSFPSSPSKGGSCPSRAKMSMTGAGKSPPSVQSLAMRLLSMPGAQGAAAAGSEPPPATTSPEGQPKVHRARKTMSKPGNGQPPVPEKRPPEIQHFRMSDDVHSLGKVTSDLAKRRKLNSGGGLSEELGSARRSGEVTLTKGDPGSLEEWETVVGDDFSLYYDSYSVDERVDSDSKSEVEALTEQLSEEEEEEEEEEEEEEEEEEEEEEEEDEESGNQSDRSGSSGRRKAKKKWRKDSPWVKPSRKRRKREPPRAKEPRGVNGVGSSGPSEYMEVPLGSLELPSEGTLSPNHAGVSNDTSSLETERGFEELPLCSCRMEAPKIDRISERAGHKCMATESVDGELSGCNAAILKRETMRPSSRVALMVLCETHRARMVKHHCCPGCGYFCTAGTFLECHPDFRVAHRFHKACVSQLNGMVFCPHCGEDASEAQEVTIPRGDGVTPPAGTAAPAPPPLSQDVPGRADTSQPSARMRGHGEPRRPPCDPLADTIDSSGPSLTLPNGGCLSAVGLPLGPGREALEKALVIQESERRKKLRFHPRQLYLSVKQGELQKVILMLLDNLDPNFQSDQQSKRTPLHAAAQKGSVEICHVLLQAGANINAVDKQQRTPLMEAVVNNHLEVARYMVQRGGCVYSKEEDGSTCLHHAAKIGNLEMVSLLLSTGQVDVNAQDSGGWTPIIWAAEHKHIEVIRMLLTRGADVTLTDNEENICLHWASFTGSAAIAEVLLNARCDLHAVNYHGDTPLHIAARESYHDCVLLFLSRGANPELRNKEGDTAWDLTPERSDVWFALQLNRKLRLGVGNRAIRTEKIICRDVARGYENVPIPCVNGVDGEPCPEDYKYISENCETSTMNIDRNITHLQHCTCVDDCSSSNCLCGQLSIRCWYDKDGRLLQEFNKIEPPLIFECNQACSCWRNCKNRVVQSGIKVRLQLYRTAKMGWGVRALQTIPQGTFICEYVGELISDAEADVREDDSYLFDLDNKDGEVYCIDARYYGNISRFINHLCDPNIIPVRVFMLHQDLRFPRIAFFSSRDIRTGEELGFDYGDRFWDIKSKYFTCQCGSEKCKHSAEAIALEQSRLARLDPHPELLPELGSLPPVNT
T1 sequence (Q9H9B1 2-1298 limits assumed): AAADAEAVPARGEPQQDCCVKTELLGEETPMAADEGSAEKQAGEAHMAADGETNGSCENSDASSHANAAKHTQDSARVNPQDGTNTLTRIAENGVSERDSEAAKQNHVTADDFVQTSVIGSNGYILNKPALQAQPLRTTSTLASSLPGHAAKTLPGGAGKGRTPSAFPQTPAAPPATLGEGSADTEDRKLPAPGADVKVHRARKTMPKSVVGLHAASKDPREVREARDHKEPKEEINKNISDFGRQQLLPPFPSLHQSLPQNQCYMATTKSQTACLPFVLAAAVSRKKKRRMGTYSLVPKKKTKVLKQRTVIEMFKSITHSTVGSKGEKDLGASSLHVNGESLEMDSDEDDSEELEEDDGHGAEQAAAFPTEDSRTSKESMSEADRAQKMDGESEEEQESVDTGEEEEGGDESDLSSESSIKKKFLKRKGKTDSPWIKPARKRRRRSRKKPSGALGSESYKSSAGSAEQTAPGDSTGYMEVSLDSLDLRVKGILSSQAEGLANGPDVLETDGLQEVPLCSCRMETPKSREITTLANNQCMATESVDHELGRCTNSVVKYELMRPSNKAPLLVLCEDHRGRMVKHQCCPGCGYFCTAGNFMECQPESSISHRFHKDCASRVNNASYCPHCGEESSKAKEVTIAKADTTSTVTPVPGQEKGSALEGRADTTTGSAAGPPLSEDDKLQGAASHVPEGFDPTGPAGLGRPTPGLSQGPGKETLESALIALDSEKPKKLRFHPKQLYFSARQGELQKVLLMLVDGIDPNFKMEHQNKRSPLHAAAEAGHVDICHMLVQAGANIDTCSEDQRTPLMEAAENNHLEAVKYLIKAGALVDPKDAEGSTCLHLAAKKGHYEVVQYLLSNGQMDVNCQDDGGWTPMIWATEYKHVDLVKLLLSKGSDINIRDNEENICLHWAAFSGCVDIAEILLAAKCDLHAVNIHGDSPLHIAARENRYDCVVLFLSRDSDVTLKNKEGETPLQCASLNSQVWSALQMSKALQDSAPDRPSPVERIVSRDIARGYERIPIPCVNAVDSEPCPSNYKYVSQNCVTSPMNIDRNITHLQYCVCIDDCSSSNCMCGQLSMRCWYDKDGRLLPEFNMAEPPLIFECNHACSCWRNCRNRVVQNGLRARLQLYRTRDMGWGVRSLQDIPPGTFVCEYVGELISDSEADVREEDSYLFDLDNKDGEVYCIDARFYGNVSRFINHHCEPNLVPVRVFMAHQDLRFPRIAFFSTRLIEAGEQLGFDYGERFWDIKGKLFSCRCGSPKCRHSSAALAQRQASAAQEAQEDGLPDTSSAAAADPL

B1: UBTF (protein, UniProt P17480 1-764, looked up)
Nucleolar transcription …: MNGEADCPTDLEMAAPKGQDRWSQEDMLTLLECMKNNLPSNDSSKFKTTESHMDWEKVAFKDFSGDMCKLKWVEISNEVRKFRTLTELILDAQEHVKNPYKGKKLKKHPDFPKKPLTPYFRFFMEKRAKYAKLHPEMSNLDLTKILSKKYKELPEKKKMKYIQDFQREKQEFERNLARFREDHPDLIQNAKKSDIPEKPKTPQQLWYTHEKKVYLKVRPDATTKEVKDSLGKQWSQLSDKKRLKWIHKALEQRKEYEEIMRDYIQKHPELNISEEGITKSTLTKAERQLKDKFDGRPTKPPPNSYSLYCAELMANMKDVPSTERMVLCSQQWKLLSQKEKDAYHKKCDQKKKDYEVELLRFLESLPEEEQQRVLGEEKMLNINKKQATSPASKKPAQEGGKGGSEKPKRPVSAMFIFSEEKRRQLQEERPELSESELTRLLARMWNDLSEKKKAKYKAREAALKAQSERKPGGEREERGKLPESPKRAEEIWQQSVIGDYLARFKNDRVKALKAMEMTWNNMEKKEKLMWIKKAAEDQKRYERELSEMRAPPAATNSSKKMKFQGEPKKPPMNGYQKFSQELLSNGELNHLPLKERMVEIGSRWQRISQSQKEHYKKLAEEQQKQYKVHLDLWVKSLSPQDRAAYKEYISNKRKSMTKLRGPNPKSSRTTLQSKSESEEDDEEDEDDEDEDEEEEDDENGDSSEDGGDSSESSSEDESEDGDENEEDDEDEDDDEDDDEDEDNESEGSSSSSSSSGDSSDSDSN
B2: UBAP2L (protein, UniProt Q14157 1-1087, looked up)
Ubiquitin-associated protein …: MMTSVGTNRARGNWEQPQNQNQTQHKQRPQATAEQIRLAQMISDHNDADFEEKVKQLIDITGKNQDECVIALHDCNGDVNRAINVLLEGNPDTHSWEMVGKKKGVSGQKDGGQTESNEEGKENRDRDRDYSRRRGGPPRRGRGASRGREFRGQENGLDGTKSGGPSGRGTERGRRGRGRGRGGSGRRGGRFSAQGMGTFNPADYAEPANTDDNYGNSSGNTWNNTGHFEPDDGTSAWRTATEEWGTEDWNEDLSETKIFTASNVSSVPLPAENVTITAGQRIDLAVLLGKTPSTMENDSSNLDPSQAPSLAQPLVFSNSKQTAISQPASGNTFSHHSMVSMLGKGFGDVGEAKGGSTTGSQFLEQFKTAQALAQLAAQHSQSGSTTTSSWDMGSTTQSPSLVQYDLKNPSDSAVHSPFTKRQAFTPSSTMMEVFLQEKSPAVATSTAAPPPPSSPLPSKSTSAPQMSPGSSDNQSSSPQPAQQKLKQQKKKASLTSKIPALAVEMPGSADISGLNLQFGALQFGSEPVLSDYESTPTTSASSSQAPSSLYTSTASESSSTISSNQSQESGYQSGPIQSTTYTSQNNAQGPLYEQRSTQTRRYPSSISSSPQKDLTQAKNGFSSVQATQLQTTQSVEGATGSAVKSDSPSTSSIPPLNETVSAASLLTTTNQHSSSLGGLSHSEEIPNTTTTQHSSTLSTQQNTLSSSTSSGRTSTSTLLHTSVESEANLHSSSSTFSTTSSTVSAPPPVVSVSSSLNSGSSLGLSLGSNSTVTASTRSSVATTSGKAPPNLPPGVPPLLPNPYIMAPGLLHAYPPQVYGYDDLQMLQTRFPLDYYSIPFPTPTTPLTGRDGSLASNPYSGDLTKFGRGDASSPAPATTLAQPQQNQTQTHHTTQQTFLNPALPPGYSYTSLPYYTGVPGLPSTFQYGPAVFPVAPTSSKQHGVNVSVNASATPFQQPSGYGSHGYNTGVSVTSSNTGVPDISGSVYSKTQQSFEKQGFHSGTPAASFNLPSALGSGGPINPATAAAYPPAPFMHILTPHQQPHSQILHHHLQQDGQTGSGQRSQTSSIPQKPQTNKSAYNSYSWGAN

Columns and labels:
3×MBT domain of L3MBTL1 = assay: Triple SILAC pull-down, 3xMBT/3xMBTD355N ratio (cytoplasmic, nuclear and chromatin fractions of 293T cells); format: binding, human; conditions: SILAC ratio 3xMBT vs 3xMBTD355N pull-down, 293T cells, all values in log base 2; for 3xMBT/D355N UNC Heavy: experiment with UNC0638 in heavy SILAC media; for 3xMBT/D355N UNC Light: experiment with UNC0638 in light SILAC media;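 as to all read-outs here: proteins quantified with MaxQuant, requiring at least two unique peptides and quantification in both label directions, normalized to the mean of proteins from a digested loading control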
G9a and GLP = target: T1, G9a and GLP; assay: Triple SILAC pull-down after UNC0638 treatment of 293T cells, DMSO/UNC0638 ratio of protein captured by 3×MBT; format: cell-based; set-up: endogenous in cells; host or cells: HEK 293T; conditions: all values in log base 2; for Relative to UNC0638 UNC Heavy / Relative to UNC0638 UNC Light: SILAC ratio DMSO relative to UNC0638, pull-down with 3xMBT; for Relative to UNC0638 UNC Heavy: UNC0638 in heavy SILAC media; for Relative to UNC0638 UNC Light: UNC0638 in light SILAC media; for Relative to UNC0638 Average: average of UNC Light and UNC Heavy experiments;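 as to all read-outs here: mass spectrometry (Q-Exactive) SILAC quantitation, DMSO/UNC0638 ratio computed after subtracting 3×MBTD355N mutant pull-down background, only proteins with at least twofold 3×MBT over mutant signal considered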

Molecule	3xMBT/D355N UNC Heavy (3×MBT domain of L3MBTL1) [log base 2]	3xMBT/D355N UNC Light (3×MBT domain of L3MBTL1) [log base 2]	Relative to UNC0638 UNC Heavy (G9a and GLP) [log base 2]	Relative to UNC0638 UNC Light (G9a and GLP) [log base 2]	Relative to UNC0638 Average (G9a and GLP) [log base 2]
B1	2.47	1.93	0.49	−0.29	0.10
B2	2.82	1.83	0.22	−0.06	0.08
